Assay results as given in PMC6045629.

Target: sc E183-HLA-A2 A245V (HBV | human)

CD8 coreceptor (from UniProt P01732 22-235)
reduction of IFN-γ production of human E183 CTL after 3 h with T-REx CHO cells expressing the mutant antigen: 25%
